According to the supplement of paper PMC9170038:

Tested on: MS2 coat protein
Assay: apparent KD of MS2 coat protein; higher = weaker reporter binding
Conditions: Eterna round: R107
Outline: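 In 100 mM Tris-HCl pH 7.5 with 80 mM KCl and 4 mM MgCl2, and without or with constant ligand, SNAP-549-labelled MS2 coat protein was titrated in twofold steps from 0.7 or 1.5 nM to 3 µM. Per-step times went from 0.8–1.5 h down to 10–20 min. The RNA switches were transcribed on-chip from Illumina sequencing clusters, and apparent KD is the per-design median of normalised cluster binding-curve fits.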

[1] = input ligand: theophylline 20 uM
[2] = input ligand: theophylline 2 mM
[3] = input ligand: tryptophan 2.4 mM

Row | Sequence | apparent KD of MS2 coat protein (input ligand: arginine 13.2 mM) | apparent KD of MS2 coat protein [1] | apparent KD of MS2 coat protein [2] | apparent KD of MS2 coat protein [3] | apparent KD of MS2 coat protein (input ligand: none)
1 | GACCCAUGAGUUGCAAAAGCUCAUGGGUCGCGAGGACCGGUACGGCCGCCACUCGGCUGUACAUGAGGAUCACCCAUGUCAGGGU [#1 Same State - Tryptophan A Attempt #26 (HarryS)] | 54.4 nM | 615 nM | 845 nM | – | –
2 | GACUAACAUGAGGAUCACCCAUGUGAAGAUACCAGUAAUUUCACCUACCCUUGGCAGCUUUUUUUGAACGGCCUGAAUGCCUUGU [theeternabot_sameState_MS2_Theo_A_14] | 12.2 nM | 17.5 nM | – | 11.9 nM | –
3 | GACUCUGUCGGAAGGAGCGCAGAGCCGGUCUUCUACAUGAGGAUCACCCAUGUGCUGGUUAUGCAGGUAGGUCGCCGACGCGUGG [Ismatiza] | 17 nM | 40.2 nM | 27.2 nM | 24.6 nM | 27.1 nM
4 | GACUGUAAAAUAUGACUCAGGGUGACGUCCCGAGGACCGGUACGGCCGCCACUCGAGCGAAUACAUGAGGAUCACCCAUGUAGUC [theeternabot_exclusion_MS2_Trp_A_15] | 20.5 nM | 61.5 nM | 81.2 nM | 54.6 nM | 45.4 nM
5 | GAGCUCGUGGACUGGCGUGCUCCGCUCCGUCGAGGACCGGUACGGCCGCCACUCGACAUGAGGAUCACCCAUGUGUGAGCUCGCG [#1 Exclusion - Tryptophan A Attempt #20 (HarryS)] | 35.3 nM | 193 nM | 134 nM | – | –
6 | GAGCUGAUGUAGAAAUUUUAUUUAUGAGAUACCAGUACAGAAAUGUACCCUUGGCAGCUCAAUUUUACAUGAGGAUCACCCAUGU [Ex Theophylline A 13] | 16.8 nM | 12.5 nM | – | 11.5 nM | –
7 | GAGCUGAUGUAGAGUGGAUAUCCUUGAGAUACCAGUACAGAAAUGUACCCUUGGCAGCUCUUCUUUACAUGAGGAUCACCCAUGU [Ex Theophylline A 24] | 12.8 nM | 14.3 nM | – | 12.5 nM | –
8 | GAGCUGAUGUAGGGCGGAUAUCCGUGAGAUACCAGUACAGAAAUGUACCCUUGGCAGCUCUUCCUUACAUGAGGAUCACCCAUGU [Ex Theophylline A 26] | 23.1 nM | 25.5 nM | – | 19.4 nM | –
9 | GAGGAAACUCACAUGAGGAUCACCCAUGUACGAGGACCGGUACGGCCGCCACUCGAAACCAUGGGCGGUUGUACAUGGAAACAUG [Design 2] | 21.4 nM | 33.3 nM | 34.9 nM | – | –
10 | GAGUAAACUACGGCCGCCACUCAAGGAGAUCAAUAGAUCAUCGACAUGAGGAUCACCCAUGUAAAGAGGACCGGGUAGAUCCUUA [Same State Typrtophan B GF1] | 97.8 nM | 98.9 nM | 362 nM | 100 nM | 214 nM
11 | GAGUAGAGGACGGCCGCCACUAAACAUGAGGAUCACCCAUGUCGUGAUCCGUUACCUAGAGUAGAUAGGACCGGGUCAUAUAGUC [Exclusion Tryptophan B GF 16] | 20.8 nM | 41.5 nM | 24.5 nM | – | –
12 | GAGUCCGCGGCGGCCGCCACUCGCGAUAUAACAUGAUAUCAGGACAUGAGGAUCACCCAUGUCACGAGGACCGGGCCGAUCCUCA [Same State Typptophan B GF 5] | 17 nM | 49.2 nM | 35.8 nM | – | –
13 | GAUACGCAGUCGGCCGCCACUUGCUAAGGUGACAAACCAAAACAUGAGGAUCACCCAUGUCUGAUAAGGACCGGGACCACCAUGG [theeternabot_sameState_MS2_Trp_B_14] | 69.7 nM | 124 nM | 129 nM | – | –
14 | GAUAUAUAUCGAAGGAGCGGCCCUUGAUCCUCAUGAGACAUGAGGAUCACCCAUGUCUCGGGCCAGGUAGGUCGCGAUAUAUAUC [Astros-omei-mod2] | 26.3 nM | 28.8 nM | 24.2 nM | 22.8 nM | 21.2 nM
15 | GAUCGAAAUAACGCAUAGGAAAACUAUGCGCGAGGACCGGUACGGCCGCCACUCGUCCUCACAUGAGGAUCACCCAUGUACGAUC [#SwitchBubble #CuTurnoff] | 23.1 nM | 29.1 nM | 27.6 nM | – | –
16 | GAUGAACUAUAUGAUACCAGACAACAUGAGGAUCACCCAUGUGUAAGUCGUCCUCUGCCUGUCCCUUGGCAGCGUAUAGUUUAUC [XTheo B #18] | 43.2 nM | 76.4 nM | – | 23.3 nM | –
17 | GAUGAACUAUGUGAUACCAGACAACAUGAGGAUCACCCAUGUGCGCGUCGUCCUCUGCCUGUCCCUUGGCAGCGUAUAGUUUAUC [XTheo B #13] | 77.9 nM | 110 nM | – | 47.8 nM | –
18 | GAUGAACUAUUCGAUACCAGACUACAUGAGGAUCACCCAUGUGUGUCAAUUUCUCAGUCAGUCCCUUGGCAGCGAAUAGUUUAUC [#26 Exclusion-TheophyllineB] | 53 nM | 51.7 nM | – | 26.3 nM | –
19 | GAUGAACUAUUUGAUACCAGACUACAUGAGGAUCACCCAUGUGAGUUUAUACUUCAGUCAGUCCCUUGGCAGCAAAUAGUUUAUC [XTheo B #6] | 38.3 nM | 60.9 nM | – | 42.1 nM | –
20 | GAUGAACUAUUUGAUACCAGACUACAUGAGGAUCACCCAUGUGUGUUUAUACUUCUGUCAGUCCCUUGGCAGCAAAUAGUUUAUC [XTheo B #4] | 47.3 nM | 95.2 nM | – | 40.4 nM | –
